# The supplement of paper PMC9170038
# Test system: MS2 coat protein
# Assay: apparent KD of MS2 coat protein; designed switch direction (-1 OFF switch, 1 ON switch): -1; higher = weaker reporter binding
# Procedure, shortened: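 Designed RNA switches were transcribed on Illumina chips by stalled E. coli RNA polymerase and titrated with SNAP-549-labelled MS2 coat protein from 0.7 or 1.5 nM, doubling to 3 µM. Step length ran from 0.8–1.5 h at the lowest concentration to 10–20 min at the highest. The apparent KD is the median over clusters for each design, from curve-fitted normalised cluster fluorescence.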
# [1] = Eterna round: R95, input ligand: FMN 200 uM
# [2] = Eterna round: R95, input ligand: microRNA oligo, concentration not stated
# [3] = Eterna round: R95, input ligand: none
# [4] = input ligand: microRNA oligo, concentration not stated
Sequence,apparent KD of MS2 coat protein [1],apparent KD of MS2 coat protein [2],apparent KD of MS2 coat protein [3],apparent KD of MS2 coat protein (input ligand: FMN 200 uM),apparent KD of MS2 coat protein (input ligand: none),apparent KD of MS2 coat protein [4]
UAGAGACAUGAGGAUCACCCAUGUGAGGAUAUAGAGGAAGAUUGCGAGAGGGAGAGGACUAGAAGGCACAGUGA [JR_Exclu1_Sub034] (puzzle: Exclusion 1),31.4 nM,35.2 nM,47.5 nM,,,
"UUAGUGUUAGGAUAUCCGGCUCCAAGGCACCAAAACCGGGCGGAGAAGGAACAUGAGGAUCACCCAUGUGACCA [Eternabot (Original) Solution 31] (Eterna round: R97, puzzle: Exclusion 4)",,,,53.7 nM,49.1 nM,
"CUGAGCAGACGGAGAUCCAACAUGAGGAUCACCCAUGUCUCAUAAGCUUUUUGUUCAUCUUAUUGUACCUUGGUGCU [JL ViennaUCT Edcesobi mod 4] (puzzle: Sensor v3, turn-off variant 1)",149 nM,24.6 nM,252 nM,,,
UAUUUGUGAGGAUAUGAGUCGUAGAACAAUAGUACUACGUCUCAGAAGGUACAUGAGGAUCACCCAUGUUCCUC [Fiskers Ex 4 Super Stable 44 mod 31] (puzzle: Exclusion 4),,18.4 nM,,,,
"AUAACAUGCUGGUGAUCAUACAUGAGGAUCACCCAUGUAACAAGCUUUUUGCUCGUCUUAUAAUUUAAGAUCACCAG [Stov1/7-A2] (Eterna round: R97, puzzle: Sensor, turn-off variant 1)",,,,17.4 nM,18.1 nM,
"AGCGAUUCAGGAUAUACGGGUGGGCUGGAUCUUGGAGGAGUACAUGAGGAUCACCCAUGUAGAAGGGAAUUUUC [Eternabot (L2) Solution 35] (Eterna round: R97, puzzle: Exclusion 2)",,,,95.5 nM,40.2 nM,
AUUUUAAUAUAGGAUAUCGAAUUUAUUAUUUAACGAGAAGGAUGAACAUGAGGAUCACCCAUGUGGUAUCAUGG [JL-ex6-3.03] (puzzle: Exclusion 6),214 nM,263 nM,178 nM,,,
"CAGCCCUGAGGAUAUCCAUCCUCGUACAUGAGGAUCACCCAUGUCUCCCUCUGGGCUUUCGGAGAAGGCAGGUAUC [Megrez-6.1] (Eterna round: R97, puzzle: Exclusion 5)",,,,743 nM,976 nM,
"AUGAGGAUAAGAAAGUGAAGAUAGAGCGUACCUUAUGGAACAUGAGGAUCACCCAUGUAGCUUUUUGCUCGUCUUAU [JR_SV3TOV2_Sub031] (puzzle: Sensor v3, turn-off variant 2)",19.9 nM,49.5 nM,14.7 nM,,,
"UUUUGUUUGCGAGGAUAUGCUUUUAGUAAGUUAGCAGAAGGCGCGUUACAUAGAACCUCUUGUUACAUGAGGAUCACCCAUGUU [JR_ExcNG1_Sub036] (Eterna round: R96, puzzle: Exclusion NG 1)",,,,179 nM,168 nM,110 nM
"CUGAGAUGAGGAUAUACAUGAGGAUCACCCAUGUAAAGUAGCUUGCGUACAGGCAGAUGUAGAAGGCAUUUCGG [Mod of JL 4 - Jieux - Exclusion 3] (Eterna round: R97, puzzle: Exclusion 3)",,,,44.7 nM,25.3 nM,
"AAUUAAACAAGCAGAUCCCACAUGAGGAUCACCCAUGUGCUCGUCUUAUAAGGUACUGUGACAAAAGUCACGGUACC [Mat - Sensor, turn-off var - Eli Mod - D67] (Eterna round: R97, puzzle: Sensor, turn-off variant 1)",,,,47.9 nM,51.7 nM,
"AGAAAACAUGAGGAUCACCCAUGUGAGGAUAUCGCGCUUAACAGGGUCACAGUGGUGUCGAGAAGGUGCCUGGG [Eternabot (L1) Solution 55] (Eterna round: R97, puzzle: Exclusion 1)",,,,144 nM,66.3 nM,
"CACAUGGGAACAUGAGGAUCACCCAUGUGAUAGAAAGGUAUGGAGGAUAUCAUACCAUCGCCGUGUGAGAAGGUCAGGCCAACA [Eternabot solution 46] (Eterna round: R96, puzzle: Exclusion NG 3)",,,,409 nM,388 nM,151 nM
AAGAAACAUGAGGAUCACCCAUGUGAGGAUAUGAUUAAGAAAAGAAAAGAAAGAAGAAUCAGAAGGCACAAAGG [salish99-ex1_r3_042] (puzzle: Exclusion 1),258 nM,98.7 nM,108 nM,,,
"AGUACUAUCACGAAAGUGAUAGUACAACGAGCUUGUGAAACAUGAGGAUCACCCAUGUCCUCAUGAGUUCGUCUUAU [JL turnoff v2 67] (Eterna round: R96, puzzle: Sensor v2, turn-off variant 2)",,,,13.9 nM,15.7 nM,65.4 nM
CGUGCGUAUGUGAGGAUAUGCUGGUCCUUGGAUCGGCAGAAGGCACAUGAGGAUCACCCAUGUGGUGUCGUACG [salish99_Bmod_ex4_080] (puzzle: Brourd's mod of Exclusion 4),,374 nM,,,,
"UUGAAGUCAGGAUAUCGUUAAUUUAGUUGUUUGUAUUAGUUCGAGAAGGGACAUGAGGAUCACCCAUGUAAGUA [Ex4 #47] (Eterna round: R97, puzzle: Exclusion 4)",,,,32.7 nM,40.5 nM,
CCUAUGUGAGGAUAUCACUGGUCUUCUCACUGGAUGACCAGUGAGAAGGCACAUGAGGAUCACCCAUGUCGGUG [Ex4 - 3 - 50] (puzzle: Exclusion 4),,312 nM,,,,
"CUGGAAAACGAGGAUAUGCACCGGCUCGCUGACGCAGAAGGCGACACAUGAGGAUCACCCAUGUCGGUACGCGA [salish99_ex6_r004_449] (Eterna round: R97, puzzle: Exclusion 6)",,,,17.2 nM,18.8 nM,
GUGUACGGAGGAUAUAUGUGGCGAGCAUACGCUCGAGCUUCACAUGAGGAUCACCCAUGUAGAAGGCUGUGCAC [JL-ex2-2.12 Brourd mod] (puzzle: Exclusion 2),,17.9 nM,,,,
"ACACACACAGGAUAUCUUCCGCAUGACAUGAGGAUCACCCAUGUGUGCAUGCCCAAAAGUAGAGAAGGGUGUGUGU [eternacac ex5r4 #2] (Eterna round: R97, puzzle: Exclusion 5)",,,,26.2 nM,29.2 nM,
"GACUCGCACUGAGGAUAUCGAAACGAUACGUCGCGAGAAGGCAGAGCGAACAUGAGGAUCACCCAUGUGGGUUCGCCUGAUGUA [Geedinsoma] (Eterna round: R96, puzzle: Exclusion NG 1)",,,,23.2 nM,16.7 nM,12.9 nM
UAUUAGCUAGGAUAUACAUGAGGAUCACCCAUGUCACGGGUCCACUUGUCCUAUGCGUGUAGAAGGAGCGACCC [JL Ceriza mod 3] (puzzle: Exclusion 3),,20.7 nM,,,,
"GCUUUUGGGCAAGGAUAUCCUGCGCGGUUCCGGUUCGUGUCUGUCACAUGAGGAUCACCCAUGUGGGAGAAGGUGCCUGCGGUG [Design 73] (Eterna round: R96, puzzle: Exclusion NG 2)",,,,21.5 nM,19 nM,11.7 nM
"AGCAACGUACAGGAUAUACUUCACCUUCUAGAAGUAGAAGGGUGCACAUGAGGAUCACCCAUGUUAGCGAGCAG [Eternabot (Original) Solution 25] (Eterna round: R97, puzzle: Exclusion 6)",,,,18.4 nM,15.9 nM,
